According to US20190241648A1 (STATEN BIOTECHNOLOGY B V, published 2019):
Ends that are not written are not given here.

Experiments:
Experiment in all cases: peptide microarray
[1] = biological target: ApoC3 peptide … E63A (human, cyclic constrained)
Description: (§1) F64 was completely variable.
(§2) Pre: staining of one of the ApoC3 peptide microarrays was done with the secondary antibody goat anti-human IgG (Fe) DyLight680 (1:5000) and control antibody mouse monoclonal anti-HA (12CA5) DyLight800 (1:2000) to investigate background interactions of the secondary antibody with the antigen-derived peptides that could interfere with the main assays. Subsequent incubation of other ApoC3 peptide microarrays with antibody samples was followed by staining with secondary and control antibodies as well as read-out at scanning intensities of 7/7 (red/green). The additional HA peptides framing the peptide arrays were stained as internal quality control to confirm the assay quality and the peptide microarray integrity.

[2] = biological target: T1, ApoC3 peptide … D66A (human, not fully specified (bridges); also: cyclic constrained)
T1 peptide: DKFSEFWALDPEV
Description: as §1, §2

[3] = biological target: ApoC3 peptide … V71A (human, cyclic constrained)
Description: as §1, §2

[4] = biological target: T2, ApoC3 peptide … F61C (human, cyclic constrained)
T2 peptide: DKCSEFWDLDPEV
Description: as §1, §2

[5] = biological target: T3, ApoC3 peptide … P69C (human, not fully specified (bridges); also: cyclic constrained)
T3 peptide: DKFSEFWDLDCEV
Description: as §1, §2

[6] = biological target: T4, ApoC3 peptide … F61D (human, cyclic constrained)
T4 peptide: DKDSEFWDLDPEV
Description: as §1, §2

[7] = biological target: ApoC3 peptide … E63D (human, cyclic constrained)
Description: as §1, §2

[8] = biological target: T5, ApoC3 peptide … F64D (human, not fully specified (bridges); also: cyclic constrained)
T5 peptide: DKFSEDWDLDPEV
Description: as §1, §2

[9] = biological target: T6, ApoC3 peptide … K60E (human, not fully specified (bridges); also: cyclic constrained)
T6 peptide: DEFSEFWDLDPEV
Description: as §1, §2

[10] = biological target: ApoC3 peptide … S62E (human, cyclic constrained)
Description: as §1, §2

[11] = biological target: T7, ApoC3 peptide … P69E (human, not fully specified (bridges); also: cyclic constrained)
T7 peptide: DKFSEFWDLDEEV
Description: as §1, §2

[12] = biological target: ApoC3 peptide … E63G (human, cyclic constrained)
Description: as §1, §2

[13] = biological target: T8, ApoC3 peptide … F61H (human, cyclic constrained)
T8 peptide: DKHSEFWDLDPEV
Description: as §1, §2

[14] = biological target: T9, ApoC3 peptide … L67H (human, not fully specified (bridges); also: cyclic constrained)
T9 peptide: DKFSEFWDHDPEV
Description: as §1, §2

[15] = biological target: T10, ApoC3 peptide … D59I (human, cyclic constrained)
T10 peptide: IKFSEFWDLDPEV
Description: as §1, §2

[16] = biological target: ApoC3 peptide … V71I (human, cyclic constrained)
Description: as §1, §2

[17] = biological target: ApoC3 peptide … S62K (human, cyclic constrained)
Description: as §1, §2

[18] = biological target: T11, ApoC3 peptide … D66K (human, not fully specified (bridges); also: cyclic constrained)
T11 peptide: DKFSEFWKLDPEV
Description: as §1, §2

[19] = biological target: ApoC3 peptide … V71K (human, cyclic constrained)
Description: as §1, §2

[20] = biological target: T12, ApoC3 peptide … D59L (human, cyclic constrained)
T12 peptide: LKFSEFWDLDPEV
Description: as §1, §2

[21] = biological target: T13, ApoC3 peptide … D66M (human, not fully specified (bridges); also: cyclic constrained)
T13 peptide: DKFSEFWMLDPEV
Description: as §1, §2

[22] = biological target: ApoC3 peptide … V71M (human, cyclic constrained)
Description: as §1, §2

[23] = biological target: T14, ApoC3 peptide … W65N (human, not fully specified (bridges); also: cyclic constrained, ring type and places not given here)
T14 peptide: DKFSEFNDLDPEV
Description: as §1, §2

[24] = biological target: T15, ApoC3 peptide … W65P (human, not fully specified (bridges); also: cyclic constrained, ring type and places not given here)
T15 peptide: DKFSEFPDLDPEV
Description: as §1, §2

[25] = biological target: T16, ApoC3 peptide … K60Q (human, not fully specified (bridges); also: cyclic constrained)
T16 peptide: DQFSEFWDLDPEV
Description: as §1, §2

[26] = biological target: T17, ApoC3 peptide … D66Q (human, not fully specified (bridges); also: cyclic constrained)
T17 peptide: DKFSEFWQLDPEV
Description: as §1, §2

[27] = biological target: ApoC3 peptide … V71R (human, cyclic constrained)
Description: as §1, §2

[28] = biological target: T18, ApoC3 peptide … F64S (human, not fully specified (bridges); also: cyclic constrained)
T18 peptide: DKFSESWDLDPEV
Description: as §1, §2

[29] = biological target: T19, ApoC3 peptide … F61T (human, not fully specified (bridges); also: cyclic constrained)
T19 peptide: DKTSEFWDLDPEV
Description: as §1, §2

[30] = biological target: ApoC3 peptide … E63T (human, cyclic constrained)
Description: as §1, §2

[31] = biological target: ApoC3 peptide … D68T (human, cyclic constrained)
Description: as §1, §2

[32] = biological target: T20, ApoC3 peptide … E70T (human, cyclic constrained)
T20 peptide: DKFSEFWDLDPTV
Description: as §1, §2

[33] = biological target: T21, ApoC3 peptide … E70V (human, cyclic constrained)
T21 peptide: DKFSEFWDLDPVV
Description: as §1, §2

[34] = biological target: ApoC3 peptide … E63W (human, cyclic constrained)
Description: as §1, §2

[35] = biological target: ApoC3 peptide … D68W (human, cyclic constrained)
Description: as §1, §2

[36] = biological target: T22, ApoC3 peptide … L67Y (human, not fully specified (bridges); also: cyclic constrained)
T22 peptide: DKFSEFWDYDPEV
Description: as §1, §2

[37] = biological target: T23, ApoC3 peptide … E70Y (human, cyclic constrained)
T23 peptide: DKFSEFWDLDPYV
Description: as §1, §2

[38] = biological target: ApoC3 peptide … V71Y (human, cyclic constrained)
Description: as §1, §2

% of binding to wild-type peptide [1]: 36.7% | % of binding to wild-type peptide [2]: 0% | % of binding to wild-type peptide [3]: 85.2% | % of binding to wild-type peptide [4]: 20.6% | % of binding to wild-type peptide [5]: 28.9% | % of binding to wild-type peptide [6]: 31.3% | % of binding to wild-type peptide [7]: 77.9% | % of binding to wild-type peptide [8]: 220% | % of binding to wild-type peptide [9]: 223% | % of binding to wild-type peptide [10]: 70.7% | % of binding to wild-type peptide [11]: 152% | % of binding to wild-type peptide [12]: 20.5% | % of binding to wild-type peptide [13]: 44.2% | % of binding to wild-type peptide [14]: 7.67% | % of binding to wild-type peptide [15]: 103% | % of binding to wild-type peptide [16]: 54.3% | % of binding to wild-type peptide [17]: 11.1% | % of binding to wild-type peptide [18]: 0.33% | % of binding to wild-type peptide [19]: 58.7% | % of binding to wild-type peptide [20]: 68.6% | % of binding to wild-type peptide [21]: 0.08% | % of binding to wild-type peptide [22]: 105% | % of binding to wild-type peptide [23]: 56.5% | % of binding to wild-type peptide [24]: 13.8% | % of binding to wild-type peptide [25]: 140% | % of binding to wild-type peptide [26]: 0% | % of binding to wild-type peptide [27]: 47.5% | % of binding to wild-type peptide [28]: 196% | % of binding to wild-type peptide [29]: 56.3% | % of binding to wild-type peptide [30]: 35.9% | % of binding to wild-type peptide [31]: 0.69% | % of binding to wild-type peptide [32]: 1.55% | % of binding to wild-type peptide [33]: 0.27% | % of binding to wild-type peptide [34]: 1.91% | % of binding to wild-type peptide [35]: 0% | % of binding to wild-type peptide [36]: 3.08% | % of binding to wild-type peptide [37]: 4.49% | % of binding to wild-type peptide [38]: 87.3%
B1: anti-ApoC3 antibody 6A6 (antibody, V domains shown)
VH: EVQLVESGGGLVQPGGSLRLSCAASGFTFSSYAGRWVRQVPGKGLEWVSSINAGGGSTSYADSVKGRFTISRDNAKNTLYLQMNSLKPEDTAKYYCTQNSYRYWGQGTRVAVSS
VL: DVVLTQTPGSLSVVPGESASISCKASQSLIHTDGKTYLYWLLQKPGQRPQLLIYQVSSHESGVPDRFTGSGSGTDFTLKISGVKAEDAGVYYCAQATYNPRTFGQGTKLEIK
notes: it was detected with goat anti-human IgG (Fc); also called mAb 6A6; llama antibody 6A6
